Each block holds one binder with its values, some of them ahead of it.
Experiments:
[1] = molecular target: T1, recombinant human C1r2s2 tetramer (human, UniProt P09871 16-688; P00736 18-705); test: SPR (Biacore), pH5.8*: dissociation at pH5.8 after association and dissociation at pH7.4, 37 C, Scrubber fit
T1 construct: Heterotetramer of two C1r and two C1s chains, co-expressed in FreeStyle293-F cells; also called human C1r2s2s
T1 chain 1: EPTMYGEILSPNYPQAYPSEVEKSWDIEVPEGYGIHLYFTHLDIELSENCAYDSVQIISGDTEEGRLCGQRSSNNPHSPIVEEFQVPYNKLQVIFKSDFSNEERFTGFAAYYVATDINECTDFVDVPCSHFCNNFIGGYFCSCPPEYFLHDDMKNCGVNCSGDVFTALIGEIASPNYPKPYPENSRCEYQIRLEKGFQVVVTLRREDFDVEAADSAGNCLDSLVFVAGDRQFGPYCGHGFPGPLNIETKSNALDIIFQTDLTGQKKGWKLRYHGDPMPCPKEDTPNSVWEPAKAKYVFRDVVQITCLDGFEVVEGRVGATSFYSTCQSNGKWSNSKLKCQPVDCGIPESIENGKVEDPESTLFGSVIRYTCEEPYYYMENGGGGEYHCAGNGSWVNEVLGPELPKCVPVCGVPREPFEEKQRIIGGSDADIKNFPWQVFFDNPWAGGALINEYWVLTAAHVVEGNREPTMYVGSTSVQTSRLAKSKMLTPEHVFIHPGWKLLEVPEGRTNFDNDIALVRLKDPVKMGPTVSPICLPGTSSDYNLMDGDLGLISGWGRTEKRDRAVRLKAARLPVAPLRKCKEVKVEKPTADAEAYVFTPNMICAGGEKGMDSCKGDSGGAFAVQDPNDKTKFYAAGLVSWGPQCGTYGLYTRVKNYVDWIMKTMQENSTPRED
T1 chain 2: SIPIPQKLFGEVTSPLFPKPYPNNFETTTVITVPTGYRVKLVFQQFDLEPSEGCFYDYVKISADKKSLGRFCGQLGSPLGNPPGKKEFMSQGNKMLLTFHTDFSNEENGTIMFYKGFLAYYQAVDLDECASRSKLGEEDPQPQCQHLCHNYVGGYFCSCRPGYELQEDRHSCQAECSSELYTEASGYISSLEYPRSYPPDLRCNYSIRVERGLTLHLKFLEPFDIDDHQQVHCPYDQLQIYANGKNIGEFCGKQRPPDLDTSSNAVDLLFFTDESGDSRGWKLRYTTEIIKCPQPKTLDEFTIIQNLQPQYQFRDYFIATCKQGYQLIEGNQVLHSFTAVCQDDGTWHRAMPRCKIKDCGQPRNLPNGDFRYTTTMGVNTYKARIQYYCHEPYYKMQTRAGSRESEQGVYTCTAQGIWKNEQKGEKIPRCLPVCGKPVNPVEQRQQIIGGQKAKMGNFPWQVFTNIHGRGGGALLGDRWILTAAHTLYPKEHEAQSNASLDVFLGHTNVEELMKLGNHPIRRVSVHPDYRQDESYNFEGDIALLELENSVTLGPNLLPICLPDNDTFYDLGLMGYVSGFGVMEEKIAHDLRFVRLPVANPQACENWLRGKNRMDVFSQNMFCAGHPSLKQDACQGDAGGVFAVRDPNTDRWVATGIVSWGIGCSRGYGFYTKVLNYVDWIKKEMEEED
Experimental: (§1) The kinetic parameters of anti-C1s antibodies against recombinant human C1s (as described in PCT/JP2018/042054), human C1r2s2, and cyno C1r2s2 His/Flag (also referred as cyno C1r2s2 in the Table and Figures) were assessed at pH7.4 and pH5.8, at 37 degrees C. using BIACORE (registered trademark) T200 instrument (GE Healthcare) or BIACORE 4000 (GE Healthcare). ProAG (Pierce) was immobilized onto a CM4 sensorchip using amine coupling kit (GE Healthcare) according to the recommended settings by GE Healthcare. Antibodies and analytes were diluted into the respective running buffers, ACES pH7.4 and pH5.8 (20 mM ACES, 150 mM NaCl, 1.2 mM CaCl₂, 1 mg/ml BSA, 1 mg/ml CMD, 0.05% Tween 20, 0.005 w/v % NaN₃). Each antibody was captured onto the sensor surface by ProA/G. Antibody capture levels were typically 100-200 resonance units (RU). Then, recombinant C1s was injected at concentrations of 25 and 50 nM followed by dissociation at pH7.4 and pH5.8. The surface was regenerated using 10 mM Glycine-HCl, pH1.5. Kinetic parameters at neutral pH conditions and acidic conditions were determined by fitting the sensorgrams with 1:1 binding model using BIACORE (registered trademark) T200 Evaluation software, version 2.0 (GE Healthcare) or BIACORE 4000 Evaluation software. The dissociation rate at pH5.8 (after dissociation at pH7.4, indicated as pH5.8* in TABLE 2) was determined by processing and fitting data using Scrubber 2.0 (BioLogic Software) curve fitting software. The association rate (ka), dissociation rate (kd), binding affinity (KD) at pH7.4 and pH5.8 condition, and dissociation rate (kd) at pH5.8* condition of the antibodies are listed in TABLE 2. Some kinetic parameters of COS0098pHv1 in acidic condition were not correctly calculated because of its weak binding response.
(§2) Also, to observe the cross-reactivity of anti-C1s antibodies against human C1r2s2 and cyno C1r2s2 (cyno C1r2s2 His/Flag), BIACORE (registered trademark) kinetics analysis was performed.

[2] = molecular target: T1, recombinant human C1r2s2 tetramer; test: SPR (Biacore), antibody captured on ProA/G, antigen as analyte, 37 C, pH7.4, 1.2 mM CaCl2; pH 7.4
Experimental: as §1, §2

koff [1]: 0.107 s⁻¹
B1: COS0098pHv1 (antibody, V domains shown)
VH: QVQLVQSGAEVKKPGSSVKVSCKASGHTFSKYTVSWIRQPPGKGLEWIGIINTGGSAYPATWAKGRVTITADESTSTAYMELSSLRSEDTAVYYCARGAGDTDYTNLWGQGTLVTVSS
VL: DIQMTQSPSSLSASVGDRVTITCQASENIYSALAWYQQKPGQPPKLLIYGASQLESGVPSRFSGSGSGTDFTLTISSLQPEDFATYYCQQYYFTSHTFGQGTKVEIK
notes: Humanized, optimized pH-dependent variant of COS0098bb

Kd [2]: 0.213 nM | koff [2]: 0.0002 s⁻¹ | kon [2]: 936000 M⁻¹ s⁻¹ | koff [1]: 0.000909 s⁻¹
B2: COS0098bb (antibody, V domains shown)
VH: QSVEESGGRLVTPGTPLTLTCTVSGFSLTKYTVSWVRQAPGKGLEWIGIINTGGSAYYATWAKGRFTFSKTSTTVDLQITSPTTEDTATYFCARGNGDTDYTNLWGPGTLVTVSS
VL: QVLTQTPSSVSEPVGGTVTINCQASENIYSALAWYQQKPGQPPKLLIYGASNLESGVPSRFKGSGSGTQFTLTISDLECADAATYYCQQYYFTSSTFGGGTKVEIK
notes: Anti-C1s rabbit antibody, parent of COS0098pHv1; the antibody was captured by ProA/G; also called anti-C1s antibody COS0098bb
